± gives the uncertainty stated by the source.
Test: self-splicing fitness, log relative to wild type (ln ratio); higher = more splicing; Tetrahymena group I intron in knt gene, E. coli kanamycin selection, DiMSum; sequences stand for … in CUCUCU…GGAGGGAAAAGUUAUCAGGCAUGCACCUGGUAGCUAGUCUUUAAACCAAUAGAUUGCAUCGGUUUAAAAGGCAAGACCGUCAAAUUGCGGGAAAGGGGUCAACAGCCGUUCAGUACCAAGUCUCAGGGGAAACUUUGAGAUGGCCUUGCAAAGGGUAUGGUAAUAAGCUGACGGACAUGGUCCUAACCACGCAGCCAAGUCCUAAGUCAACAGAUCUUCUGUUGAUAUGGAUGCAGUUCACAGACUAAAUGUCGGUCGGGGAAGAUGUAUUCUUCUCAUAAGAUAUAGUCGGACCUCUCCUUAAUGGGAGCUAGCGGAUGAAGUGAUGCAACACUGGAGCCGCUGGGAACUAAUUUGUAUGCGAAAGUAUAUUGAUUAGUUUUGGAGUACUCGUGGUCG
Outline: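 A randomised library covering all eight P1ex-region intron nucleotides was built with the intron in the knt kanamycin-resistance gene on pET-22b(+) and held in E. coli BL21(DE3). Cells were grown overnight at 37°C or 30°C on LB agar, with or without 25 μg/mL kanamycin, plus 100 μg/mL carbenicillin, 50 μM IPTG and 0.2% rhamnose, and pooled colonies were amplicon-sequenced on an Illumina HiSeq 2500. DiMSum fitness is the error-weighted combination of wild-type-normalised replicate fold changes, kanamycin versus none.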

Sequence | self-splicing fitness (ln) (30 °C) | self-splicing fitness (ln) (37 °C)
UCCGAGCAAUAUUACGACUG | -2.56 ± 0.34 | -1.76 ± 0.37
UCCGAGCAAUAUUACGAGGU | -3.89 ± 0.34 | 
UCCGAGCAAUAUUACGAGUU | -2.64 ± 0.2 | 
UCCGAGCAAUAUUACGAUAC | -4.73 ± 0.46 | -2.96 ± 0.35
UCCGAGCAAUAUUACGAUUG | -3.7 ± 0.28 | -1.77 ± 0.28
UCCGAGCAAUAUUACGCCUA | -2.13 ± 0.2 | -2.6 ± 0.36
UCCGAGCAAUAUUACGCCUG | -2.12 ± 0.36 | -1.84 ± 0.31
UCCGAGCAAUAUUACGGAAU | -1.91 ± 0.14 | -1.77 ± 0.2
UCCGAGCAAUAUUACGGACU | -3.56 ± 0.21 | -2.02 ± 0.14
UCCGAGCAAUAUUACGGCGG | -2.11 ± 0.14 | -2.2 ± 0.15
UCCGAGCAAUAUUACGGCUA | -0.436 ± 0.096 | -0.18 ± 0.1
UCCGAGCAAUAUUACGGGCG | -3.47 ± 0.35 | -1.68 ± 0.36
UCCGAGCAAUAUUACGGUAU | -1.95 ± 0.15 | -2.41 ± 0.23
UCCGAGCAAUAUUACGGUUA | -0.525 ± 0.058 | -0.174 ± 0.063
UCCGAGCAAUAUUACGUAUA | -3.79 ± 0.29 | -2.54 ± 0.24
UCCGAGCAAUAUUACGUCGC | -3.15 ± 0.28 | -1.24 ± 0.3
UCCGAGCAAUAUUACGUCUG | -3.5 ± 0.24 | 
UCCUAGCAAUAUUACGAACU | -2.54 ± 0.19 | -1.6 ± 0.23
UCCUAGCAAUAUUACGACUA | -1.23 ± 0.38 | -2.73 ± 0.41
UCCUAGCAAUAUUACGAGCU | -3.57 ± 0.37 | -1.99 ± 0.38
UCCUAGCAAUAUUACGAGUG | -2.1 ± 0.1 | -0.96 ± 0.1
UCCUAGCAAUAUUACGCACA | -2.29 ± 0.22 | -1.45 ± 0.21
UCCUAGCAAUAUUACGCCAG | -3.13 ± 0.26 | -2.68 ± 0.26
UCCUAGCAAUAUUACGCCAU | -2.5 ± 0.3 | -0.725 ± 0.35
UCCUAGCAAUAUUACGCCCG |  | -2.38 ± 0.42

Sequence | self-splicing fitness (ln) (30 °C) | self-splicing fitness (ln) (37 °C)
UCCUAGCAAUAUUACGCCGG |  | -1.88 ± 0.3
UCCUAGCAAUAUUACGCGCC | -2.63 ± 0.17 | -2.29 ± 0.24
UCCUAGCAAUAUUACGCGGU | -2.34 ± 0.17 | -1.63 ± 0.18
UCCUAGCAAUAUUACGCGUG | -4.1 ± 0.15 | -2.75 ± 0.12
UCCUAGCAAUAUUACGGAUG | -4.25 ± 0.34 | -2.67 ± 0.2
UCCUAGCAAUAUUACGGGAA | -1.84 ± 0.21 | -1.76 ± 0.14
UCCUAGCAAUAUUACGGGAG | -2.27 ± 0.25 | -2.37 ± 0.35
UCCUAGCAAUAUUACGGGCU | -2.12 ± 0.1 | -1.74 ± 0.13
UCCUAGCAAUAUUACGGGUA | -0.468 ± 0.088 | -0.134 ± 0.12
UCCUAGCAAUAUUACGGGUU | -2.26 ± 0.13 | -1.78 ± 0.15
UCCUAGCAAUAUUACGGUCA | -0.978 ± 0.079 | -0.106 ± 0.089
UCCUAGCAAUAUUACGGUGC | -2.74 ± 0.17 | -2.36 ± 0.18
UCCUAGCAAUAUUACGUAAU | -2.99 ± 0.15 | -2.37 ± 0.18
UCCUAGCAAUAUUACGUCCU | -3.56 ± 0.15 | -1.92 ± 0.14
UCCUAGCAAUAUUACGUUAA | -3.69 ± 0.28 | -2.32 ± 0.26
UCCUAGCAAUAUUACGUUAG | -3.49 ± 0.2 | -1.92 ± 0.23
UCGAAGCAAUAUUACGAAGA | -2.08 ± 0.25 | -0.685 ± 0.19
UCGAAGCAAUAUUACGAAUG | -2.95 ± 0.17 | -1.84 ± 0.19
UCGAAGCAAUAUUACGAUUC | -4.04 ± 0.39 | -1.74 ± 0.26
UCGAAGCAAUAUUACGCAAA |  | -3.16 ± 0.4
UCGAAGCAAUAUUACGCCCC | -1.87 ± 0.44 | 
UCGAAGCAAUAUUACGCGAA | -2.42 ± 0.17 | -0.19 ± 0.13
UCGAAGCAAUAUUACGCGCA | 0.425 ± 0.26 | -0.635 ± 0.21
UCGAAGCAAUAUUACGCGGU | -2.73 ± 0.3 | -2.48 ± 0.36
